Data on two molecules can be found in article PMC7385628, “Molecular determinants for dsDNA translocation by the transcription-repair coupling and evolvability factor Mfd”.

Series [1] relates to Mfd D7-AAA;H842A (Escherichia coli). As to the kind of experiment: fluorescence anisotropy. As to conditions: 10 nM labeled DNA, 2 mM nucleotide (ADP-AlFx from ADP, 10 mM NaF, 2 mM AlCl3), buffer, pH and temperature not in the material. …. On the technique in general: In fluorescence polarisation assays a small probe gives low polarisation when free and higher when bound to something large.

Series [2] addresses T1, Mfd wild type (Escherichia coli, UniProt P30958 1-1148). The experiment in a line: fluorescence anisotropy. To be noted: 10 nM labeled DNA, 2 mM nucleotide (ADP-AlFx from ADP, 10 mM NaF, 2 mM AlCl3), buffer, pH and temperature not in the material. ….
Series [3] deals with T1, Mfd wild type. The experiment in a line: cryo-EM structure (5.5 A); 2 mM ADP, 10 mM NaF, 1 mM AlCl3, Mg2+; Fluorescence anisotropy, 10 nM labeled DNA, 2 mM nucleotide (ADP-AlFx from ADP, 10 mM NaF, 2 mM AlCl3); buffer, pH and temperature not in the material. Cryo-EM: Mfd in 20 mM Tris-HCl pH 8, 100 mM NaCl, 20 mM MgCl2, 2 mM TCEP. As to conditions: protein: recombinant; tags: N-terminal His tag, cleaved with PreScission; blunt.

T1 sequence (P30958 whole entry): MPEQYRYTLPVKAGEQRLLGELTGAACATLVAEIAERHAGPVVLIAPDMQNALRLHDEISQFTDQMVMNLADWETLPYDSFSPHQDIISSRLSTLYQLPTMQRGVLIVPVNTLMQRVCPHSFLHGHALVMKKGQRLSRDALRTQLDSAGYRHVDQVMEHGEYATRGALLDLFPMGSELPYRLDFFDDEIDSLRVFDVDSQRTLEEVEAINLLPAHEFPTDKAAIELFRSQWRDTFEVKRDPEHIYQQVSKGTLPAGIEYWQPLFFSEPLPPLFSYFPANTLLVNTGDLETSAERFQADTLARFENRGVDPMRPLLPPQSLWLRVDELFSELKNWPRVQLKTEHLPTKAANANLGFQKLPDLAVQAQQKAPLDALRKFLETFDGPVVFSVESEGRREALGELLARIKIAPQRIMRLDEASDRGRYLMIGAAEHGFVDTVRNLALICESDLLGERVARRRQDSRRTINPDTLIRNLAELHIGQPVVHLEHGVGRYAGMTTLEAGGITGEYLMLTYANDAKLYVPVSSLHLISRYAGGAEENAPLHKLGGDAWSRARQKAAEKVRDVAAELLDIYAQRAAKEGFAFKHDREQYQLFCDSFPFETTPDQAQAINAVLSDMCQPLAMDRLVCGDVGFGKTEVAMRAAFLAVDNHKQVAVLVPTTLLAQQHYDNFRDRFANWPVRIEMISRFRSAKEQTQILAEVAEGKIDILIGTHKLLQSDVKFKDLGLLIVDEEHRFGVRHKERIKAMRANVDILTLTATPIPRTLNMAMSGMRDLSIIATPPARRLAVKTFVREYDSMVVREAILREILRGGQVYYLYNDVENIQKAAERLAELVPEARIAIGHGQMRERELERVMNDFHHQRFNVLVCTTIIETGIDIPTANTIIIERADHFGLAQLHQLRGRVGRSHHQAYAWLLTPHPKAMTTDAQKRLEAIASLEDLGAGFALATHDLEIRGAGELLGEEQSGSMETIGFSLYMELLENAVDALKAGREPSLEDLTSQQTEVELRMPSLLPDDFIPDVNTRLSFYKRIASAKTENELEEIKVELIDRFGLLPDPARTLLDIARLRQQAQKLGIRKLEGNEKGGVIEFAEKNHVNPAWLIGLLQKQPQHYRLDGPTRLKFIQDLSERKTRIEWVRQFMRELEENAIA

As to HEX-labeled 40mer dsDNA, the Kd (usually the free concentration of one partner at which half of the binding sites on the other are occupied at equilibrium, for simple one-to-one binding) in series [1] was 127 nM; in series [1] (2 mM ATPgS), 927 nM; in series [2] (2 mM ADP-AlFx), 24 nM; in series [2] (2 mM ATPgS), 151 nM.

B1: 21mer dsDNA (cryo-EM) (dsDNA)
DNA 1: ATAGGATACTTACAGCCATCG
DNA 2: CGATGGCTGTAAGTATCCTAT
As to B1, the binding result in series [3] is reported as “binds”.
